{
  "source": "paper PMC12172022",
  "about": "“Overexpression of TaPIP1A enhances drought and salt stress tolerance in Arabidopsis: cross-species conservation and molecular dynamics”",
  "binders": {"B1": {"name": "P-W probe (TaPIP1A promoter) (dsDNA)", "DNA 1": "CATGACATGACAGGTGAGGTGACACCACAAG", "DNA 2": "CTTGTGGTGTCACCTCACCTGTCATGTCATG"}},
  "target": "MBP-TaWRKY71 (Triticum aestivum (wheat) cv. KN9204, UniProt A0A3S6GV84 1-300)",
  "sequence (A0A3S6GV84 entry or part of it)": "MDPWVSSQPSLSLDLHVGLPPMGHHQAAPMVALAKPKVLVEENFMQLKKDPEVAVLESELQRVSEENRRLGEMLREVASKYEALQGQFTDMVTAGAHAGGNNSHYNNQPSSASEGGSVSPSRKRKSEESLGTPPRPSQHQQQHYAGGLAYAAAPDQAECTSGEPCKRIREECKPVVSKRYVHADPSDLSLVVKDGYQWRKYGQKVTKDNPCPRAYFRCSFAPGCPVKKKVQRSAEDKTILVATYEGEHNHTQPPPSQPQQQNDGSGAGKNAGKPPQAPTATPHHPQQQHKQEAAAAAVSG",
  "assay": "EMSA; complex signal weakened by 200-fold unlabeled competitor; LightShift chemiluminescent EMSA, 6% gel (printed as SDS-PAGE); 25 min at room temperature; probe annealed in 10 mM Tris-HCl pH 7.6, 1 mM EDTA, 50 mM NaCl; binding buffer not stated",
  "conditions": "protein: recombinant; tags: N-terminal MBP (pMALC2X); label: 5' biotin; blunt",
  "data": [
    {"binder": "B1", "values": [
      {"measurement": "binding result", "value": "binds"}
    ]}
  ]
}
